The values that follow come from US20220233710A1 (NANTONG YICHEN BIOPHARMA, published 2022).

One test addresses T1, Recombinant human IL-6 (human, UniProt P05231 30-212).
T1 construct: Bought protein
In words: ELISA, human IL-6 coated on plate, anti-human Fc-HRP. Here is the method: Recombinant human IL-6 (SinoBiological) (100 ng/well) (PBS buffer, pH7.4) was coated in a 96-well plate, and incubated overnight at 4° C. After blocked with PBST containing 2% skimmed milk powder (0.5% Tween-20 in PBS) at room temperature for 1 hour, followed by being washed for 3 times with PBST, the bispecific molecules (0.04 nM-30 nM) in gradient dilutions were added and incubated at 37° C. for 1 h. After being washed for 3 times with PBST, anti-human Fc-HRP (KPL, 1:2500) secondary antibody diluted by 2% milk/PBST was added and incubated at room temperature for 1 h, followed by being washed for 5 times with PBST. TMB (BioLegend) was used for color development, and readings was performed in Thermal VARIOSKAN FLASH plate reader at 650 nm. Data was analyzed with a log[agonist] vs response (3 parameters) model in “non-linear regression” by Graphpad Prizm software.
(In general: In an ELISA, binding on a coated surface is turned into a signal by an enzyme label.)

In a further test the target is T2, recombinant mouse IL-1β (mouse, UniProt P10749 118-269).
T2 construct: Bought protein; also called murine IL-1β
In words: ELISA, IL-1β coated on plate, anti-human Fc-HRP. The protocol: (§1) Recombinant human IL-1β (Thermo Fisher Scientific), recombinant mouse IL-1β (Sino Bio), recombinant mouse IL-1R (Sino Bio), or recombinant human IL-1R (100 ng/well) (DPBS buffer, pH7.4) was coated in a 96-well plate, and incubated overnight at 4° C. After blocked by PBST (0.5% Tween-20 in PBS) containing 2% skimmed milk powder for 1 hour at room temperature, and being washed with PBST for 3 times, the gradient diluted bispecific molecules (0.006 nM-100 nM) were added and incubated at 37° C. for 1 h. After being washed with PBST for 3 times, anti-human Fc-HRP (KPL; 1:2500) secondary antibody diluted by 2% milk/PBST was added and incubated at room temperature for 1 h, and then washed by PBST for 5 times. QuantaBlu fluorescent peroxide enzyme substrate (Life technologies, Cat. 15169) was used for color development, and reading was performed at 325 nm and 420 nm, or TMB color reagent (Bio Legend) was used for color development, and the reading was performed at 650 nm. Data was analyzed by nonlinear regression using specific binding model in Prizm Graphpad software.

The target of another test is T3, recombinant human IL-1β (human, UniProt P01584 117-269).
T3 construct: Bought protein
In words: ELISA, IL-1β coated on plate, anti-human Fc-HRP. The protocol:
as §1

T1 sequence (P05231 30-212 limits assumed): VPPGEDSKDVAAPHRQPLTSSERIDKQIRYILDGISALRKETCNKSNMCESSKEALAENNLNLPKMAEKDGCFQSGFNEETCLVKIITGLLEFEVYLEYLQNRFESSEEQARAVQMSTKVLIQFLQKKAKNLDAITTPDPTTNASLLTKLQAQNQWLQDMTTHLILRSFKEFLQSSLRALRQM

B1: aIL-6 antibody (antibody, human IgG1, kappa, N297A, V domains shown)
VH: EVQLVESGGGLVQPGGSLRLSCAASGFTFSPFAMSWVRQAPGKGLEWVAKISPGGSWTYYSDTVTGRFTISRDNAKNSLYLQMNSLRAEDTAVYYCARQLWGYYALDIWGQGTTVTVSS
VL: EIVLTQSPATLSLSPGERATLSCSASISVSYMYWYQQKPGQAPRLLIYDMSNLASGIPARFSGSGSGTDFTLTISSLEPEDFAVYYCMQWSGYPYTFGGGTKVEIKR
With B1, the binding result with Recombinant human IL-6 was “binds”.

B2: BSI-13 (bispecific antibody, human IgG1, kappa, N297A)
heavy: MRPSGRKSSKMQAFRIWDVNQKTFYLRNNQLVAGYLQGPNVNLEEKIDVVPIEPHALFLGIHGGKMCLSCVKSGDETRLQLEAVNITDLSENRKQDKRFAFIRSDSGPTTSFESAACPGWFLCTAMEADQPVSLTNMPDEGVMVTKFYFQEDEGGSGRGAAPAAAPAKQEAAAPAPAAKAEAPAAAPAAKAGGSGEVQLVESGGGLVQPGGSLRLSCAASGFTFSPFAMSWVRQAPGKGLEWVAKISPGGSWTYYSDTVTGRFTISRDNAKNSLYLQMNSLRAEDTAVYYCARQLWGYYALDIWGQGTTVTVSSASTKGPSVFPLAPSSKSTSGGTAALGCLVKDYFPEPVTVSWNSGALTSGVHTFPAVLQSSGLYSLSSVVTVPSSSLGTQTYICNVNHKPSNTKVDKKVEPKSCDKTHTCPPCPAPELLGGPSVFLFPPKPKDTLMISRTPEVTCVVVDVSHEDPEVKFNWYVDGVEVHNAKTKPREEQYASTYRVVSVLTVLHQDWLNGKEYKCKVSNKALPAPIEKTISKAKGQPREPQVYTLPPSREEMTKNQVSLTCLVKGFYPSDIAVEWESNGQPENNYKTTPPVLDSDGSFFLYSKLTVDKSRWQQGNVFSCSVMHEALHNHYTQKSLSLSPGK
light: EIVLTQSPATLSLSPGERATLSCSASISVSYMYWYQQKPGQAPRLLIYDMSNLASGIPARFSGSGSGTDFTLTISSLEPEDFAVYYCMQWSGYPYTFGGGTKVEIKRTVAAPSVFIFPPSDEQLKSGTASVVCLLNNFYPREAKVQWKVDNALQSGNSQESVTEQDSKDSTYSLSSTLTLSKADYEKHKVYACEVTHQGLSSPVTKSFNRGEC
notes: aIL-6 antibody fused with IL-1RA by a linker peptide
In the case of B2, the binding result in the test with Recombinant human IL-6 was “binds”.

B3: BSI-16 (bispecific antibody, human IgG1, kappa)
heavy: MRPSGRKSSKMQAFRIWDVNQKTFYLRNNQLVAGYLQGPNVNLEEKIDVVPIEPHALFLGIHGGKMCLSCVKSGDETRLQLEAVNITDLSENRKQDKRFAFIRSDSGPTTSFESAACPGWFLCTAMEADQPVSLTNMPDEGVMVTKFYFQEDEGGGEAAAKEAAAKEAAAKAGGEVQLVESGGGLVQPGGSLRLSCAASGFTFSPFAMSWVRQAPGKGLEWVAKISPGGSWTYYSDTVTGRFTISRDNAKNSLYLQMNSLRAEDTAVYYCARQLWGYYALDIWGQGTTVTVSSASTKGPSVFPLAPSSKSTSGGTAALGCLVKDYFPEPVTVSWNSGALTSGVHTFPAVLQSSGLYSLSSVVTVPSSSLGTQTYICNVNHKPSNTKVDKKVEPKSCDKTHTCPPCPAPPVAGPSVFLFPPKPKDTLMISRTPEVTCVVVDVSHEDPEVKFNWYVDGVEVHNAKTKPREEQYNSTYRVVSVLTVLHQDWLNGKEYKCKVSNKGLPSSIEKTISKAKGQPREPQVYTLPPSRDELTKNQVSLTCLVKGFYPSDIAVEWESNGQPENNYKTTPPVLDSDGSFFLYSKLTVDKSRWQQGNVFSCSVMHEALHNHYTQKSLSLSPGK
light: B2 light
notes: as for B2
Regarding B3, the binding result with Recombinant human IL-6 is “binds”.

B4: aIL-1β-2 antibody (antibody, V domains shown)
VH: QVQLQQWGAGLLKPSETLSLTCAVYGGSFSDYYWSWIRQPPGKGLEWIGEIDHSGSTNYNPSLKSRVTISVDTSKNQFSLKLSSVTAADTAVYYCARASPSSGWTLDYWGQGTLVTVSS
VL: QSVLTQPPSVSVSPGQTASITCSGDKLGDKFAFWYQQKPGQSPVLVIYLDNKRPSGIPERFSGSNSGNTATLTISGTQALDEADYYCYAWADTYEVFGGGTKVDIKR
B4: the binding result in the test with recombinant mouse IL-1β and with recombinant human IL-1β was “binds” each time.
